The record followed here is patent US20250368754A1 (KANAPH THERAPEUTICS, published 2025).

The target in experiment [1] is T1, recombinant human herpes virus entry mediator (HVEM) (human, UniProt Q92956 39-202).
T1 construct: neither construct is described; also called human HVEM; recombinant human HVEM protein (R&D systems)
T1 sequence (looked up): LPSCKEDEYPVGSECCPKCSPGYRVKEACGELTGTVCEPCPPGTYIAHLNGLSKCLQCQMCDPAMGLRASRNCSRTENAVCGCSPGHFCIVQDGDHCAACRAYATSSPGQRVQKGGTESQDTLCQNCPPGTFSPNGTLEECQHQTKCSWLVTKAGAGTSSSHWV
In words: sandwich ELISA: plate coated with recombinant human HVEM 1 ug/mL, fusion protein from 1 nM in serial dilution, detected with biotinylated recombinant human FAP and streptavidin conjugate, OD 450 nm. The procedure: Considering that LIGHT of the fusion protein must bind to the herpes virus entry mediator (HVEM) for the action, it was confirmed that T3.01 binds to the recombinant human HVEM, as follows: [0370] (i) The recombinant human HVEM protein (R&D systems) was suspended at 1 μg/mL, dispensed in a 96-well immune plate, and treated for 24 hours. [0371] (ii) The wells were washed with a wash solution, and then blocking was performed for 1 hour with 1% BSA (bovine serum albumin, Sigma) solution. [0372] (iii) The wells were washed with a wash solution, and then T3.01, T3.14, T3.16, T3.17, T3.18 and T3.10, or T3.05, T3.06, T3.04, T3.14 and T3.10 were suspended at 1 nM and diluted by serial dilution. The wells were treated with the diluted T3.01, T3.14, T3.16, T3.17, T3.18 and T3.10, or T3.05, T3.06, T3.04, T3.14 and T3.10 for 2 hours. [0373] (iv) The wells were washed with a wash solution, and then treated with the human recombinant FAP-biotin diluted at 0.5 μg/mL for 2 hours. [0374] (v) The wells were washed with a wash solution, and then treated with streptavidin-RP for 20 minutes. [0375] (vi) The wells were washed with a wash solution, and then treated with a substrate solution for 20 minutes. [0376] (vii) The wells were treated with a stop solution, and the absorbance was measured at 450 nm.
In general terms: An ELISA detects its analyte on a solid surface through an enzyme-linked reagent.

Experiment [2] concerns the target T2, human LTβR on A375 cells (human, UniProt P36941 31-435).
T2 construct: whole, on cells; Endogenous receptor of a human cell line; also called LTβR expressing A375 cells; LTβR expressing cell line
In words: flow cytometry on A375 cells, serial dilutions, anti-human IgG detection, MFI against TMEkine [nM]. The procedure: (§1) Specifically, the A375 cell line was prepared by suspending in a FACS buffer solution at 1×10⁵ cells/100 μL, and treated with 100 μL each of T3.01, T3.07, T3.04, and T3.18 prepared by suspending at 500 nM and diluting by serial dilution. The cells were washed twice with a FACS buffer solution. The cells were stained with an anti-human IgG antibody (Biolegend). The expression ratio of the stained cells was measured using BD LSR and analyzed using FlowJo software.
In general terms: A flow cytometer gives signals particle by particle.

In experiment [3] the target is T2, human LTβR on A375 cells. In words: cell-based or functional assay.
The target of experiment [4] is T2, human LTβR on A375 cells. In words: flow cytometry on A375 cells, serial dilution from 500 nM, anti-human IgG detection. The procedure: as §1
Experiment [5] addresses T3, recombinant human lymphotoxin beta receptor (LTβR) (human, UniProt P36941 28-227, limits assumed).
T3 construct: neither construct is described; also called human LTβR; recombinant human LTβR protein
Briefly: SPR, human LTβR immobilised on CM5, fusion protein as analyte, 1:1 binding model. The procedure: Specifically, the surface of the CM5 chip was activated with a 1:1 mixture of […], and 5 μg/mL of human LTβR was immobilized for 60 seconds at a rate of 10 μL/min. The remaining active ester groups were blocked with 1 M ethanolamine. […] The diluted fusion proteins were reacted at a rate of 30 μL/min. The association and dissociation times were 180 seconds and 400 seconds, respectively. After the dissociation step, stabilization was performed for 60 seconds, and then the regeneration step was performed for 30 seconds with a 10 mM glycine pH 1.5 solution at a rate of 30 μL/min.

In a further experiment the target is T4, recombinant human FAP (human, UniProt Q12884 26-760).
T4 construct: also called rhFAP
T4 sequence (looked up): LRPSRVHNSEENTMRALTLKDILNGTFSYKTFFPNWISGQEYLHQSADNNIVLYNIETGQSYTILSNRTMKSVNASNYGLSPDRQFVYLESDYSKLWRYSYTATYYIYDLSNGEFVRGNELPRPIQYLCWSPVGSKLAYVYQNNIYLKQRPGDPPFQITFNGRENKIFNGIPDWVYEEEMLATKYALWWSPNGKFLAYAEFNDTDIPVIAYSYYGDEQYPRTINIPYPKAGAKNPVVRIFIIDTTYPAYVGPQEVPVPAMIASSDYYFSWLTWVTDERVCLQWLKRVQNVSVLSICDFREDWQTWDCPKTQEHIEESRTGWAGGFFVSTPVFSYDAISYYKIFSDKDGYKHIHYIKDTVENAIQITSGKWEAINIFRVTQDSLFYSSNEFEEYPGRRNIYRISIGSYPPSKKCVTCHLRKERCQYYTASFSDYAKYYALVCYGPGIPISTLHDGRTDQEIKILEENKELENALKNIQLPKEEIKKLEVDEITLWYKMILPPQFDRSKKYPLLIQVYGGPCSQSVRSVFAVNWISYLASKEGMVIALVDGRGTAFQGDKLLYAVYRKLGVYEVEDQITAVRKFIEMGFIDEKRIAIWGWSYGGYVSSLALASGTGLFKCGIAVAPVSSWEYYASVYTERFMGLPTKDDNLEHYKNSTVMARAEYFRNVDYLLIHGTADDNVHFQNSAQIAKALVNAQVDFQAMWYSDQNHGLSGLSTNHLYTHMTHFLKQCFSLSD
Briefly: SPR, fusion protein captured by anti-human IgG (Fc) on CM5, recombinant human FAP as analyte, 1:1 binding model. The procedure: Specifically, the surface of the CM5 chip was activated with a 1:1 mixture of […] NHS (N-hydroxysuccinimide) and 200 nM EDC (1-ethyl-3-(3-dimethylaminopropyl)carbodiimide), and 20 μg/mL of anti-human IgG (Fc) antibody was immobilized for 400 seconds at a rate of 10 μL/min. The remaining active ester groups were blocked with 1 M ethanolamine. T3.01, T3.07, and T3.14 were diluted to 2 μg/mL, 1 μg/mL, and 2 μg/mL, respectively, and reacted on the CM5 chip immobilized with the anti-human IgG (Fc) antibody. The recombinant human FAP was diluted to 50 nM or 100 nM in 1×HBS-EP+buffer solution and diluted by serial dilution. The diluted recombinant human FAP was reacted at a rate of 30 μL/min. The association and dissociation times were 180 seconds and 400 seconds, respectively. After the dissociation step, stabilization was performed for 60 seconds, and then the regeneration step was performed for 30 seconds with a 10 mM glycine pH 1.5 solution at a rate of 30 μL/min.
Background: SPR reads the build-up and loss of mass on a sensor chip optically.

The target of experiment [6] is T1, recombinant human herpes virus entry …. In words: SPR, human HVEM immobilised on CM5, fusion protein as analyte, 1:1 binding model. The procedure: (§2) Specifically, the surface of the CM5 chip was activated with a 1:1 mixture of […], and 5 to 6 μg/mL of human HVEM was immobilized for 60 seconds at a rate of 10 μL/min. The remaining active ester groups were blocked with 1 M ethanolamine. T3.01, T3.07, T3.09, T3.14, and T3.18 were each diluted to 100 nM in 1×HBS-EP+buffer solution and diluted by serial dilution. The diluted fusion proteins were reacted at a rate of 30 μL/min. The association and dissociation times were 180 seconds and 400 seconds, respectively. After the dissociation step, stabilization was performed for 60 seconds, and then the regeneration step was performed for 30 seconds with a 10 mM glycine pH 1.5 solution at a rate of 30 μL/min.

A further experiment addresses T5, human DcR3 (human, UniProt O95407 30-300).
T5 construct: also called LIGHT receptor DcR3
T5 sequence (looked up): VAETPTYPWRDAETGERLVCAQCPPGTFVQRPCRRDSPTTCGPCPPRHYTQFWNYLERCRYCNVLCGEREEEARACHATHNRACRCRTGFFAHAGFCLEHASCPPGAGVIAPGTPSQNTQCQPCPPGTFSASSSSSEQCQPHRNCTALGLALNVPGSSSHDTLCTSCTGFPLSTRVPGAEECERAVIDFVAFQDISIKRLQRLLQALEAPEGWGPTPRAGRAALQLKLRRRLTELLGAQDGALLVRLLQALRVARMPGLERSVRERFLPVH
Briefly: SPR, human DcR3 immobilised on CM5, fusion protein as analyte, 1:1 binding model. The procedure:
as §2, with “DcR3” for “HVEM”, “50 nM or 200” for “100”

As a reminder, the EC50 (read off the curve) is the concentration at which the effect is half-maximal. Higher therefore signals weaker potency. In general, Kd refers to the constant that tells how readily two partners part at equilibrium. The koff is the first-order rate constant of dissociation. What is called kon is a measure of how fast the partners come together.

T2 sequence (P36941 31-435): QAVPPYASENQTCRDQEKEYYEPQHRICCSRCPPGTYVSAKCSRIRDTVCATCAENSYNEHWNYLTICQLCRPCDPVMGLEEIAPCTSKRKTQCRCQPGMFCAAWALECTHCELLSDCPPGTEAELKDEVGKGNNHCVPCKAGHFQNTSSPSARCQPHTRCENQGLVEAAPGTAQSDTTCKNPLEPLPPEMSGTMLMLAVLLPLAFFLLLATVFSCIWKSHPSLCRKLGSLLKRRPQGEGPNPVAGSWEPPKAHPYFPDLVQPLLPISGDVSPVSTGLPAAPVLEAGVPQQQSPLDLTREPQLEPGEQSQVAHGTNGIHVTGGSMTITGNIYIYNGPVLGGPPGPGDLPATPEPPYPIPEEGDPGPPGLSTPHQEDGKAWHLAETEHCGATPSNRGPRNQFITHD
T3 sequence (P36941 28-227 limits assumed): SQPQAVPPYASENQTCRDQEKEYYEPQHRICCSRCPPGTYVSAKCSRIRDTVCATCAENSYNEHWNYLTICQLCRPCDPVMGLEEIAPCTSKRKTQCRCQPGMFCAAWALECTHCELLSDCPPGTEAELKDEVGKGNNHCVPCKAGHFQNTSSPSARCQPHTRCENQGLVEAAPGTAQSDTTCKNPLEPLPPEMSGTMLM

B1: T3.04 (anti-hu FAP/hu scLIGHT3(GGGGS4), hu IgG1 DANG) (bispecific antibody)
heavy: QVQLVQSGAEVKKPGASVKVSCKTSRYTFTEYTIHWVRQAPGQRLEWIGGINPNNGIPNYNQKFKGRVTITVDTSASTAYMELSSLRSEDTAVYYCARRRIAYGYDEGHAMDYWGQGTLVTVSSASTKGPSVFPLAPSSKSTSGGTAALGCLVKDYFPEPVTVSWNSGALTSGVHTFPAVLQSSGLYSLSSVVTVPSSSLGTQTYICNVNHKPSNTKVDKKVEPKSCDKTHTCPPCPAPELLGGPSVFLFPPKPKDTLMISRTPEVTCVVVAVSHEDPEVKFNWYVDGVEVHNAKTKPREEQYGSTYRVVSVLTVLHQDWLNGKEYKCKVSNKALPAPIEKTISKAKGQPREPQVYTLPPSRDELTKNQVSLWCLVKGFYPSDIAVEWESNGQPENNYKTTPPVLDSDGSFFLYSKLTVDKSRWQQGNVFSCSVMHEALHNHYTQKSLSLSPGK
light: not shown
chain: not shown
notes: Knob-into-hole; LIGHT homotrimer with (GGGGS)4 linkers
B1: the binding result in experiment [1] is on record as “binds”. In the experiment with human LTβR on A375 cells [2], the “EC50 (read off the curve)” value is roughly 4 nM. In addition, the “IL-8 secretion of A375 cells, EC50 (FIG. 15a)” value in the experiment with human LTβR on A375 cells [3] worked out at 0.0604 nM. For the same molecule, in the experiment with human LTβR on A375 cells [4], the “percent of cells bound” value is no less than 96%.

B2: T3.07 (anti-hu FAP-hu scLIGHT2/anti-hu FAP-hu LIGHT, hu IgG1 DANG (2 + 1)) (bispecific antibody)
heavy 1: QVQLVQSGAEVKKPGASVKVSCKTSRYTFTEYTIHWVRQAPGQRLEWIGGINPNNGIPNYNQKFKGRVTITVDTSASTAYMELSSLRSEDTAVYYCARRRIAYGYDEGHAMDYWGQGTLVTVSSASTKGPSVFPLAPSSKSTSGGTAALGCLVKDYFPEPVTVSWNSGALTSGVHTFPAVLQSSGLYSLSSVVTVPSSSLGTQTYICNVNHKPSNTKVDKKVEPKSCDKTHTCPPCPAPELLGGPSVFLFPPKPKDTLMISRTPEVTCVVVAVSHEDPEVKFNWYVDGVEVHNAKTKPREEQYGSTYRVVSVLTVLHQDWLNGKEYKCKVSNKALPAPIEKTISKAKGQPREPQVYTLPPSRDELTKNQVSLWCLVKGFYPSDIAVEWESNGQPENNYKTTPPVLDSDGSFFLYSKLTVDKSRWQQGNVFSCSVMHEALHNHYTQKSLSLSPGKGGGGSGGGGSEVNPAAHLTGANSSLTGSGGPLLWETQLGLAFLRGLSYHDGALVVTKAGYYYIYSKVQLGGVGCPLGLASTITHGLYKRTPRYPEELELLVSQQSPCGRATSSSRVWWDSSFLGGVVHLEAGEKVVVRVLDERLVRLRDGTRSYFGAFMVGGSGEVNPAAHLTGANSSLTGSGGPLLWETQLGLAFLRGLSYHDGALVVTKAGYYYIYSKVQLGGVGCPLGLASTITHGLYKRTPRYPEELELLVSQQSPCGRATSSSRVWWDSSFLGGVVHLEAGEKVVVRVLDERLVRLRDGTRSYFGAFMV
heavy 2: not shown
light: not shown
notes: Knob-into-hole; two anti-FAP arms, LIGHT dimer and LIGHT monomer at the C-termini of the two heavy chains; two copies of the light chain follow from the (2 + 1) format
For the molecule B2, the Kd in experiment [5] is 0.935 nM; with recombinant human FAP, 0.303 nM; in experiment [6], 3.99 nM; in the experiment with human DcR3, 0.598 nM. The koff in experiment [5] amounted to 0.000382 s⁻¹; with recombinant human FAP it was 0.000118 s⁻¹; in experiment [6] it was 0.00114 s⁻¹; with human DcR3, 0.000195 s⁻¹. In addition, the kon in experiment [5] was determined as 409000 M⁻¹ s⁻¹; with recombinant human FAP it was 391000 M⁻¹ s⁻¹; in experiment [6], 285000 M⁻¹ s⁻¹; in the experiment with human DcR3, 327000 M⁻¹ s⁻¹. The “IL-8 secretion of A375 cells, EC50 (FIG. 15b)” value with human LTβR on A375 cells [3] worked out at 0.0477 nM. Moreover, in the experiment with human LTβR on A375 cells [4], the “percent of cells bound” value was no less than 96%.
